# Source: the Immune Epitope Database (IEDB)
# What was measured:
# [1] = target: HLA-B*45:06; assay: IEDB peptide-MHC binding, purified MHC/competitive/fluorescence; filed as Kd, often an IC50 or EC50 that approximates it; ≥ and ≤ were set here for values at or beyond the usual limits of such assays; details: source organism: Giardia lamblia ATCC 50803
# [2] = target: HLA-B*15:42; assay: as above; details: source organism: Giardia lamblia ATCC 50803
# [3] = target: HLA-B*83:01; assay: as above; details: source organism: Giardia lamblia ATCC 50803
# [4] = target: HLA-A*03:01; assay: IEDB peptide-MHC binding, purified MHC/direct/fluorescence; filed as Kd, often an IC50 or EC50 that approximates it; ≥ and ≤ were set here for values at or beyond the usual limits of such assays
# [5] = target: HLA-A*26:01; assay: as above; details: source organism: Giardia lamblia ATCC 50803
# [6] = target: HLA-B*44:02; assay: as above
# [7] = target: HLA-A*01:01; assay: as above
# [8] = target: HLA-A*31:01; assay: as above
# [9] = target: HLA-B*07:02; assay: as above
# [10] = target: HLA-B*58:01; assay: as above
# [11] = target: HLA-B*15:01; assay: as above
# [12] = target: HLA-A*11:01; assay: as above
# [13] = target: HLA-B*27:05; assay: as above; details: source organism: Giardia lamblia ATCC 50803
# [14] = target: HLA-B*40:01; assay: as above; details: source organism: Giardia lamblia ATCC 50803
# [15] = target: HLA-A*69:01; assay: as above
# [16] = target: HLA-B*08:01; assay: as above
# [17] = target: HLA-C*03:03; assay: as above
# [18] = target: HLA-A*24:03; assay: IEDB peptide-MHC binding, purified MHC/competitive/fluorescence; filed as Kd, often an IC50 or EC50 that approximates it; ≥ and ≤ were set here for values at or beyond the usual limits of such assays; details: source organism: Bacillus anthracis str. A2012
# [19] = target: HLA-B*51:01; assay: IEDB peptide-MHC binding, purified MHC/competitive/radioactivity; filed as Kd, often an IC50 or EC50 that approximates it; ≥ and ≤ were set here for values at or beyond the usual limits of such assays; details: source organism: SARS coronavirus Tor2
# [20] = target: HLA-B*54:01; assay: as above; details: source organism: SARS coronavirus Tor2
# [21] = target: HLA-B*53:01; assay: as above; details: source organism: SARS coronavirus Tor2
# [22] = target: HLA-B*35:01; assay: as above; details: source organism: SARS coronavirus Tor2
# [23] = target: HLA-C*07:02; assay: IEDB peptide-MHC binding, purified MHC/direct/fluorescence; filed as Kd, often an IC50 or EC50 that approximates it; ≥ and ≤ were set here for values at or beyond the usual limits of such assays
# [24] = target: HLA-B*39:01; assay: IEDB peptide-MHC binding, purified MHC/competitive/fluorescence; filed as Kd, often an IC50 or EC50 that approximates it; ≥ and ≤ were set here for values at or beyond the usual limits of such assays; details: source organism: Mammarenavirus juninense
# [25] = target: HLA-A*29:02; assay: IEDB peptide-MHC binding, purified MHC/direct/fluorescence; filed as Kd, often an IC50 or EC50 that approximates it; ≥ and ≤ were set here for values at or beyond the usual limits of such assays; details: source organism: Mammarenavirus juninense
# [26] = target: HLA-A*02:01; assay: as above
# [27] = target: HLA-B*18:01; assay: as above; details: source organism: Mammarenavirus juninense
# [28] = target: HLA-B*46:01; assay: as above; details: source organism: Mammarenavirus juninense
# [29] = target: HLA-B*57:01; assay: as above; details: source organism: Mammarenavirus juninense
# [30] = target: HLA-B*48:01; assay: as above; details: source organism: Mammarenavirus juninense
# [31] = target: HLA-A*03:01; assay: IEDB peptide-MHC binding, purified MHC/competitive/fluorescence; ≥ and ≤ were set here for values at or beyond the usual limits of such assays; details: source organism: Zaire ebolavirus
# [32] = target: HLA-A*01:01; assay: as above
# [33] = target: HLA-A*02:01; assay: as above
# [34] = target: HLA-B*15:01; assay: as above; details: source organism: Zaire ebolavirus
# [35] = target: HLA-A*11:01; assay: as above; details: source organism: Zaire ebolavirus
# [36] = target: HLA-A*24:02; assay: as above; details: source organism: Zaire ebolavirus
# [37] = target: HLA-A*30:01; assay: IEDB peptide-MHC binding, purified MHC/direct/fluorescence; filed as Kd, often an IC50 or EC50 that approximates it; ≥ and ≤ were set here for values at or beyond the usual limits of such assays; details: source organism: Camelpox virus CMS
# [38] = source organism: Giardia lamblia ATCC 50803
# [39] = source organism: Mammarenavirus juninense
# [40] = source organism: Zaire ebolavirus
# [41] = source organism: Camelpox virus CMS
# [42] = source organism: Brucella abortus 2308
# [43] = source organism: Sudan ebolavirus
# [44] = source organism: Yellow fever virus
sequence,measurement,setting,value
AEFPVGSTA,Kd,[1],≥ 5 µM
same,Kd,[2],≥ 5 µM
same,Kd,[3],≥ 5 µM
same,Kd,[4]; [38],≥ 20 µM
same,Kd,[5],≥ 20 µM
same,Kd,[6]; [38],≥ 20 µM
same,Kd,[7]; [38],≥ 20 µM
same,Kd,[8]; [38],≥ 20 µM
same,Kd,[9]; [38],≥ 20 µM
same,Kd,[10]; [38],≥ 20 µM
same,Kd,[11]; [38],≥ 20 µM
same,Kd,[12]; [38],≥ 20 µM
same,Kd,[13],≥ 20 µM
same,Kd,[14],0.41 µM
same,Kd,[15]; [38],≥ 20 µM
same,Kd,[16]; [38],≥ 20 µM
FAKPAGTPM,Kd,[17]; source organism: Burkholderia cenocepacia HI2424,≤ 0.001 µM
FFSPVIASL,Kd,[18],≤ 0.0001 µM
same,Kd,[17]; source organism: Bacillus anthracis str. A2012,≤ 0.001 µM
FPREGVFVF,Kd,[19],0.0314 µM
same,Kd,[20],0.0925 µM
same,Kd,[21],0.00536 µM
same,Kd,[22],0.000684 µM
same,Kd,[23]; source organism: SARS-CoV1,0.51 µM
same,Kd,[9]; source organism: SARS-CoV1,0.131 µM
same,Kd,[11]; source organism: SARS-CoV1,2.14 µM
same,Kd,[16]; source organism: SARS-CoV1,0.116 µM
FRRVAHSSL,Kd,[24],0.377 µM
same,Kd,[25],≥ 20 µM
same,Kd,[4]; [39],≥ 20 µM
same,Kd,[23]; [39],0.053 µM
same,Kd,[6]; [39],≥ 20 µM
same,Kd,[7]; [39],≥ 20 µM
same,Kd,[8]; [39],≥ 20 µM
same,Kd,[26]; [39],≥ 20 µM
same,Kd,[27],≥ 20 µM
same,Kd,[28],≥ 20 µM
same,Kd,[29],≥ 20 µM
same,Kd,[30],≥ 20 µM
same,Kd,[10]; [39],≥ 20 µM
same,Kd,[11]; [39],≥ 20 µM
same,Kd,[15]; [39],≥ 20 µM
GSYGEYQSY,IC50,[31],26.1 µM
same,IC50,[32]; [40],9.91 µM
same,IC50,[33]; [40],≥ 154 µM
same,IC50,[34],3.51 µM
same,IC50,[35],1.29 µM
GTNETEYLF,IC50,[36],8.71 µM
same,IC50,[32]; [40],≥ 373 µM
same,IC50,[33]; [40],20.9 µM
HYRPYHYYH,Kd,[4]; [41],≥ 20 µM
same,Kd,[23]; [41],0.013 µM
same,Kd,[8]; [41],0.0032 µM
same,Kd,[37],0.023 µM
same,Kd,[12]; [41],≥ 20 µM
KQLEYSWVL,Kd,[26]; [42],0.0017 µM
same,Kd,[15]; [42],0.846 µM
same,Kd,[17]; source organism: Brucella canis ATCC 23365,≥ 20 µM
VSYEAGEWA,IC50,[32]; [43],50.3 µM
same,IC50,[33]; [43],15 µM
YLIIGILTL,Kd,[15]; [44],≥ 20 µM
same,Kd,[17]; [44],0.018 µM
